Results taken from article PMC11604724 (MedComm, 2024).

Tests used:
[1] = biological target: SARS‐CoV‐2 WT spike trimer protein (SARS-CoV-2, UniProt P0DTC2); test: BLI; details: both partners purified
[2] = biological target: extracellular domain of SARS‐CoV‐2 (WT) spike (S‐ECD) for cryo-EM (SARS-CoV-2 WT, proline mutation at residue 986 | proline mutation at residue 987, N-linked glycans (Asn17, Asn122, Asn165 and others)); test: cryo-EM structure; details: both partners purified

B1: mAb 26434 (antibody, V domains shown)
VH: QVQLQQSGAEVKKPGASVKVSCKASGYTFSRYGISWVRQAPGQGLEWMGWISAYKGNTNYAQKFQGRVTMTTDTSTSTAYMELRSLRSDDTAVYYCARSPPDFLGWFDPWGQGTLVTVSS
VL: LPVLTQPPSVSVSPGQTASITCSGDKLGDKFTCWYQQKPGQSPVQVIYQDTHRPSGIPERFSGSNSGNTATLTISGTQAVDEADYYCQAWDSSTVIFGGGTKLTVL
With B1 as the binder, how does the Kd [1] read?
Its Kd is 670 nM.

B2: mAb 3711 (antibody, V domains shown)
VH: EVQLVESGGGLVKPGRSLRLSCAASGFTFSDYYMSWIRQAPGKGLEWVSYISSSGSTIYYADSVRGRFTISRDNAKNSLYLQMNTLRAEDTAVYYCARGGWELRSLAGGYYGMDVWGQGTTVTVSS
VL: DIVMTQTPFTLSASVGDRVTITCRASQGIRNDLGWYQQKPGKAPKCLIYAASSLLSGVPSRFSGSGSGTEFTLTISSLQPEDFATYYCLQHNSYPWTFGQGTKLEIK
With B2 as the binder, how does the “stoichiometry N” value [2] read?
The value was 3 Fabs per spike trimer.
